# T1: GST-zyxin(1-142) (UniProt Q15942 1-142)
# T1 construct: Expressed in E. coli; also called zyxin derivative; GST fusion protein with the N-terminus of zyxin; not shown: glutathione S-transferase
# T1 sequence (looked up): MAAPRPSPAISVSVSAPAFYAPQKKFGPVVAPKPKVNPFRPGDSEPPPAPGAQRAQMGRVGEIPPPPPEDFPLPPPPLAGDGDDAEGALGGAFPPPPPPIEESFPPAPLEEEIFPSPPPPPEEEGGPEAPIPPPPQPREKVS
# Molecular target: T1, GST-zyxin(1-142)
# Assay: solid-phase assay (DELFIA) in 384-well plates, 20 µl per well, GST-zyxin(1-142) coated, VASP as ligand
# Protocol: In the solid-phase assay, a binding partner (VASP or zyxin) was immobilized on the surface of a microtiter plate (MTP) (=coating). The unsaturated binding sites on the surface of the plastic were blocked, and the surface was then incubated with the respective other binding partners. After the incubation, excess unattached protein was removed in a washing step. Using suitable antibodies, it was now possible to detect and quantify the specifically bound protein. Here, it was possible to improve the signal-noise (S/N) ratio considerably by using lanthanide chelates as fluorescent labels for the antibodies and the measurement of the time-resolved fluorescence.
# The volume per well used depended on the selected MTP format (50 µl or 100 µl for 96-well plates, 20 µl for 384-well plates).
binder,measurement,value
"recombinant human VASP protein with complete amino acid sequence obtained from insect cells (other, UniProt P50552 2-380, looked up, mature; also called baculo VASP; vasodilator-stimulated phosphoprotein) SETVICSSRATVMLYDDGNKRWLPAGTGPQAFSRVQIYHNPTANSFRVVGRKMQPDQQVVINCAIVRGVKYNQATPNFHQWRDARQVWGLNFGSKEDAAQFAAGMASALEALEGGGPPPPPALPTWSVPNGPSPEEVEQQKRQQPGPSEHIERRVSNAGGPPAPPAGGPPPPPGPPPPPGPPPPPGLPPSGVPAAAHGAGGGPPPAPPLPAAQGPGGGGAGAPGLAAAIAGAKLRKVSKQEEASGGPTAPKAESGRSGGGGLMEEMNAMLARRRKATQVGEKTPKDESANQEEPEARVPAQSESVRRPWEKNSTTLPRMKSSSSVTTSETQPCTPSSSDYSDLQRVKQELLEEVKKELQKVKEEIIEAFVQELRKRGSP",S/N ratio,~100
